Measurements reported in patent publication US20140045930A1 (published 2014).

Target: E. coli ribosomal protein L16 (endogenous) (E. coli, UniProt A7ZSK2 1-136)
Assay: co-immunoprecipitation with anti-GFP (GFP-nanotrap), SDS-PAGE, identification by LC-MS/MS

B1: GFP-YcfD (N-terminally GFP-tagged YcfD) (other)
chain: MEYQLTLNWPDFLERHWQKRPVVLKRGFNNFIDPISPDELAGLAMESEVDSRLVSHQDGKWQVSHGPFESYDHLGETNWSLLVQAVNHWHEPTAALMRPFRELPDWRIDDLMISFSVPGGGVGPHLDQYDVFIIQGTGRRRWRVGEKLQMKQHCPHPDLLQVDPFEAIIDEELEPGDILYIPPGFPHEGYALENAMNYSVGFRAPNTRELISGFADYVLQRELGGNYYSDPDVPPRAHPADVLPQEMDKLREMMLELINQPEHFKQWFGEFISQSRHELDIAPPEPPYQPDEIYDALKQGEVLVRLGGLRVLRIGDDVYANGEKIDSPHRPALDALASNIALTAENFGDALEDPSFLAMLAALVNSGYWFFEG
notes: also called green fluorescent protein (GFP)-tagged YcfD
B1: binds.
